Measured values published in paper PMC3349753.

Target: Myc-tagged full-length FGD4 (FYVE, RhoGEF and PH domain-containing 4) (human) (UniProt Q96M96)
UniProt Q96M96, sequence (Q96M96 whole entry, the tested form may be a part): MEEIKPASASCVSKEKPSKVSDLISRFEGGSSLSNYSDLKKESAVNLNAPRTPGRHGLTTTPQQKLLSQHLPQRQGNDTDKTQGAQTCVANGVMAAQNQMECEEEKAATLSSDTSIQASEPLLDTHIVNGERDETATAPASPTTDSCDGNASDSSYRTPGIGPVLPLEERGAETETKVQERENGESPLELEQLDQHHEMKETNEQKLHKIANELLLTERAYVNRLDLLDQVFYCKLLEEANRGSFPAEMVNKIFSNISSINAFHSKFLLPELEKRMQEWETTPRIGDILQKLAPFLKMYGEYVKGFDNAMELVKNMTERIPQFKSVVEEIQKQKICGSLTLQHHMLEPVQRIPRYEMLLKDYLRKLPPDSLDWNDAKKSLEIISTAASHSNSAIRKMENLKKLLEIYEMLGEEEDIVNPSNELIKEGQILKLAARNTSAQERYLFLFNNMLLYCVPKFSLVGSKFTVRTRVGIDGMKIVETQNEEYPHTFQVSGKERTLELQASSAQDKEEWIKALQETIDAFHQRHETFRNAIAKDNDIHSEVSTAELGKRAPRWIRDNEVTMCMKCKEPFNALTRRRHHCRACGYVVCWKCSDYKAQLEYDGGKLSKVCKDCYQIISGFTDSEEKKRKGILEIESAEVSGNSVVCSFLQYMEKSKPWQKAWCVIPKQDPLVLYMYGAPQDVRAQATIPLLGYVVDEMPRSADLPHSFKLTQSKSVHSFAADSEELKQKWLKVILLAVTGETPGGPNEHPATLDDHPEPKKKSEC

| Substance | level of active Cdc42 (GST-CBD pull-down from NPC-TW01 lysates) on co-expression of Myc-FGD4 with LMP1, compared with expression of FGD4 alone [fold] | level of active Cdc42 (GST-CBD pull-down from NPC-TW01 lysates) on co-expression of FGD4 with CD40CT, compared with expression of FGD4 alone: did not promote Cdc42 activation [fold] |
| --- | --- | --- |
| Flag-tagged full-length latent membrane protein 1 (LMP1) (from UniProt P03230 1-386) (natural protein) | 1.8 | – |
| Flag-CD40CT chimera: the entire transmembrane region of LMP1 (aa 1–177) replaced with that of CD40 (aa 1–214) (from UniProt P25942 21-214; P03230 178-386) | – | 1.1 |
